The RNAGym collection of RNA variant scans (doi:10.7554/elife.80360)

B1: HDV Ribozyme (parent)
chain: GGCCGGCAUGGUCCCAGCCUCCUCGCUGGCGCCGGCUGGGCAACAUUCCGAGGGGACCGUCCCCUCGGUAAUGGCGAAUGGGACCCA

Variants of: B1
Test: self-cleavage, relative activity (ratio to wild type); higher = more cleavage; co-transcriptional

| Variant | self-cleavage |
| --- | --- |
| GGCCGGCAUGGUCCCAGCCUCCUCGCUGGCGCCGGCUGGGCAACAUUCCGACGGGACCCUCCCCUCGGUAAUGGCGAAUGGGACCCA [G52C G59C] | 0.987 |
| GGCCGGCAUGGUCCCAGCCUCCUCGCUGGCGCCGGCUGGGCAACAUUCCGACGGGACCUUCCCCUCGGUAAUGGCGAAUGGGACCCA [G52C G59U] | 0.962 |
| GGCCGGCAUGGUCCCAGCCUCCUCGCUGGCGCCGGCUGGGCAACAUUCCGACGGGACCAUCCCCUCGGUAAUGGCGAAUGGGACCCA [G52C G59A] | 1.02 |
| GGCCGGCAUGGUCCCAGCCUCCUCGCUGGCGCCGGCUGGGCAACAUUCCGACGGGACCGUCCCCUCGGUAAUGGCGAAUGGCACCCA [G52C G82C] | 0.141 |
| GGCCGGCAUGGUCCCAGCCUCCUCGCUGGCGCCGGCUGGGCAACAUUCCGACGGGACCGUCCCCUCGGUAAUGGCGAAUGGUACCCA [G52C G82U] | 0.283 |
| GGCCGGCAUGGUCCCAGCCUCCUCGCUGGCGCCGGCUGGGCAACAUUCCGAUGGGACCGUCCCCUCGGUAAUGGCGAUUGGGACCCA [G52U A78U] | 0.378 |
| GGCCGGCAUGGUCCCAGCCUCCUCGCUGGCGCCGGCUGGGCAACAUUCCGAUGGGACCGUCCCCUCGGUAAUGGCGACUGGGACCCA [G52U A78C] | 0.292 |
| GGCCGGCAUGGUCCCAGCCUCCUCGCUGGCGCCGGCUGGGCAACAUUCCGACCGGACCGUCCCCUCGGUAAUGGCGAAUGGGACCCA [G52C G53C] | 0.582 |
| GGCCGGCAUGGUCCCAGCCUCCUCGCUGGCGCCGGCUGGGCAACAUUCCGACGGGACCGUCCCCUCGGUAAUGGCGACUGGGACCCA [G52C A78C] | 0.0723 |
| GGCCGGCAUGGUCCCAGCCUCCUCGCUGGCGCCGGCUGGGCAACAUUCCGAUGGGACCGUUCCCUCGGUAAUGGCGAAUGGGACCCA [G52U C61U] | 0.936 |
| GGCCGGCAUGGUCCCAGCCUCCUCGCUGGCGCCGGCUGGGCAACAUUCCGAUGGGACCGUACCCUCGGUAAUGGCGAAUGGGACCCA [G52U C61A] | 1.02 |
| GGCCGGCAUGGUCCCAGCCUCCUCGCUGGCGCCGGCUGGGCAACAUUCCGACGGGACCGUCCCCUCGGUAAGGGCGAAUGGGACCCA [G52C U72G] | 0.723 |
| GGCCGGCAUGGUCCCAGCCUCCUCGCUGGCGCCGGCUGGGCAACAUUCCGACGGGACCGUCCCCUCGGUAAAGGCGAAUGGGACCCA [G52C U72A] | 0.872 |
| GGCCGGCAUGGUCCCAGCCUCCUCGCUGGCGCCGGCUGGGCAACAUUCCGACGGGACCGUCCCCUCGGUAAUGGCGUAUGGGACCCA [G52C A77U] | 0.731 |
| GGCCGGCAUGGUCCCAGCCUCCUCGCUGGCGCCGGCUGGGCAACAUUCCGACGGGACCGUCCCCUCGGUAAUGGCGGAUGGGACCCA [G52C A77G] | 0.643 |
| GGCCGGCAUGGUCCCAGCCUCCUCGCUGGCGCCGGCUGGGCAACAUUCCGACGGGACCGUCCCCUCGGUAAUGGCGCAUGGGACCCA [G52C A77C] | 0.403 |
| GGCCGGCAUGGUCCCAGCCUCCUCGCUGGCGCCGGCUGGGCAACAUUCCGACGGGACCGUCCCCUCUGUAAUGGCGAAUGGGACCCA [G52C G67U] | 0.753 |
| GGCCGGCAUGGUCCCAGCCUCCUCGCUGGCGCCGGCUGGGCAACAUUCCGACGGGACCGUCCCCUCAGUAAUGGCGAAUGGGACCCA [G52C G67A] | 0.62 |
| GGCCGGCAUGGUCCCAGCCUCCUCGCUGGCGCCGGCUGGGCAACAUUCCGACGGGACCGUCCCCUCGGUAAUGGCGAAUGGGAGCCA [G52C C84G] | 0.978 |
| GGCCGGCAUGGUCCCAGCCUCCUCGCUGGCGCCGGCUGGGCAACAUUCCGACGGGACCGUCCCCUCGGUAAUGGGGAAUGGGACCCA [G52C C75G] | 0.104 |
| GGCCGGCAUGGUCCCAGCCUCCUCGCUGGCGCCGGCUGGGCAACAUUCCGACGGUACCGUCCCCUCGGUAAUGGCGAAUGGGACCCA [G52C G55U] | 0.966 |
| GGCCGGCAUGGUCCCAGCCUCCUCGCUGGCGCCGGCUGGGCAACAUUCCGACGGAACCGUCCCCUCGGUAAUGGCGAAUGGGACCCA [G52C G55A] | 0.901 |

| Variant | self-cleavage |
| --- | --- |
| GGCCGGCAUGGUCCCAGCCUCCUCGCUGGCGCCGGCUGGGCAACAUUCCGACGGGACCGUCCCCUGGGUAAUGGCGAAUGGGACCCA [G52C C66G] | 0.672 |
| GGCCGGCAUGGUCCCAGCCUCCUCGCUGGCGCCGGCUGGGCAACAUUCCGACGGGACCGUCCCCUUGGUAAUGGCGAAUGGGACCCA [G52C C66U] | 0.965 |
| GGCCGGCAUGGUCCCAGCCUCCUCGCUGGCGCCGGCUGGGCAACAUUCCGACGGGACCGCCCCCUCGGUAAUGGCGAAUGGGACCCA [G52C U60C] | 0.966 |
| GGCCGGCAUGGUCCCAGCCUCCUCGCUGGCGCCGGCUGGGCAACAUUCCGAUGGGACUGUCCCCUCGGUAAUGGCGAAUGGGACCCA [G52U C58U] | 0.898 |
| GGCCGGCAUGGUCCCAGCCUCCUCGCUGGCGCCGGCUGGGCAACAUUCCGACGGGACCGUCCGCUCGGUAAUGGCGAAUGGGACCCA [G52C C63G] | 0.892 |
| GGCCGGCAUGGUCCCAGCCUCCUCGCUGGCGCCGGCUGGGCAACAUUCCGACGAGACCGUCCCCUCGGUAAUGGCGAAUGGGACCCA [G52C G54A] | 0.541 |
| GGCCGGCAUGGUCCCAGCCUCCUCGCUGGCGCCGGCUGGGCAACAUUCCGACGGGACCGUCCCCUCGGUAAUUGCGAAUGGGACCCA [G52C G73U] | 0.415 |
| GGCCGGCAUGGUCCCAGCCUCCUCGCUGGCGCCGGCUGGGCAACAUUCCGAUGGGACCGUCCCCUCGGUAAUGGCGAAUGGGACCCA [G52U] | 0.938 |
| GGCCGGCAUGGUCCCAGCCUCCUCGCUGGCGCCGGCUGGGCAACAUUCCGAUGGGAGCGUCCCCUCGGUAAUGGCGAAUGGGACCCA [G52U C57G] | 0.95 |
| GGCCGGCAUGGUCCCAGCCUCCUCGCUGGCGCCGGCUGGGCAACAUUCCGAUGGGAUCGUCCCCUCGGUAAUGGCGAAUGGGACCCA [G52U C57U] | 1.24 |
| GGCCGGCAUGGUCCCAGCCUCCUCGCUGGCGCCGGCUGGGCAACAUUCCGACGGGACCGUCCCCUCGGGAAUGGCGAAUGGGACCCA [G52C U69G] | 0.914 |
| GGCCGGCAUGGUCCCAGCCUCCUCGCUGGCGCCGGCUGGGCAACAUUCCGACGGGACCGUCCCCUCGGAAAUGGCGAAUGGGACCCA [G52C U69A] | 1.21 |
| GGCCGGCAUGGUCCCAGCCUCCUCGCUGGCGCCGGCUGGGCAACAUUCCGACGGGACCGUCCCCUCGGUAAUGGCGAAUAGGACCCA [G52C G80A] | 0.475 |
| GGCCGGCAUGGUCCCAGCCUCCUCGCUGGCGCCGGCUGGGCAACAUUCCGACGGGACCGUCCCCUCGGUAAUGGCGAAUUGGACCCA [G52C G80U] | 0.299 |
| GGCCGGCAUGGUCCCAGCCUCCUCGCUGGCGCCGGCUGGGCAACAUUCCGAUGGGACCGUCCCCUCGGUAUUGGCGAAUGGGACCCA [G52U A71U] | 0.781 |
| GGCCGGCAUGGUCCCAGCCUCCUCGCUGGCGCCGGCUGGGCAACAUUCCGAUGGGCCCGUCCCCUCGGUAAUGGCGAAUGGGACCCA [G52U A56C] | 0.815 |
| GGCCGGCAUGGUCCCAGCCUCCUCGCUGGCGCCGGCUGGGCAACAUUCCGAUGGGACCGUCCCCUCGGUAAUGGCGAAUGGGACCCG [G52U A87G] | 0.906 |
| GGCCGGCAUGGUCCCAGCCUCCUCGCUGGCGCCGGCUGGGCAACAUUCCGAUGGGACCGUCCCCUCGGUAAUGGCGAAUGGGACCCU [G52U A87U] | 1 |
| GGCCGGCAUGGUCCCAGCCUCCUCGCUGGCGCCGGCUGGGCAACAUUCCGACGGGACCGUCCCCUCGGUAAUGGCGAAAGGGACCCA [G52C U79A] | 0.906 |
| GGCCGGCAUGGUCCCAGCCUCCUCGCUGGCGCCGGCUGGGCAACAUUCCGACGGGACCGUCCCCUCGGUAAUGGCGAACGGGACCCA [G52C U79C] | 0.582 |
| GGCCGGCAUGGUCCCAGCCUCCUCGCUGGCGCCGGCUGGGCAACAUUCCGACGGGACCGUCCCCUCGGUAAUGGCGAAUGGGGCCCA [G52C A83G] | 0.683 |
| GGCCGGCAUGGUCCCAGCCUCCUCGCUGGCGCCGGCUGGGCAACAUUCCGACGGGACCGUCCCCUCGGUAAUGGCGAAUGGGUCCCA [G52C A83U] | 0.389 |

| Variant | self-cleavage |
| --- | --- |
| GGCCGGCAUGGUCCCAGCCUCCUCGCUGGCGCCGGCUGGGCAACAUUCCGACGGGACCGUCCCAUCGGUAAUGGCGAAUGGGACCCA [G52C C64A] | 0.753 |
| GGCCGGCAUGGUCCCAGCCUCCUCGCUGGCGCCGGCUGGGCAACAUUCCGACGGGACCGUCCCGUCGGUAAUGGCGAAUGGGACCCA [G52C C64G] | 0.739 |
| GGCCGGCAUGGUCCCAGCCUCCUCGCUGGCGCCGGCUGGGCAACAUUCCGACGGGACCGUACCCUCGGUAAUGGCGAAUGGGACCCA [G52C C61A] | 0.857 |
| GGCCGGCAUGGUCCCAGCCUCCUCGCUGGCGCCGGCUGGGCAACAUUCCGACGGGACCGUCCCCUCGGUAAUGGCGAAUGGGACCGA [G52C C86G] | 0.997 |
| GGCCGGCAUGGUCCCAGCCUCCUCGCUGGCGCCGGCUGGGCAACAUUCCGACGGGACCGUCCCCUCGUUAAUGGCGAAUGGGACCCA [G52C G68U] | 0.332 |
| GGCCGGCAUGGUCCCAGCCUCCUCGCUGGCGCCGGCUGGGCAACAUUCCGACGGGACCGUCCCCUCGGUAAUGGCGAAUGGGACCCC [G52C A87C] | 0.85 |
| GGCCGGCAUGGUCCCAGCCUCCUCGCUGGCGCCGGCUGGGCAACAUUCCGACGGGACUGUCCCCUCGGUAAUGGCGAAUGGGACCCA [G52C C58U] | 1.24 |
| GGCCGGCAUGGUCCCAGCCUCCUCGCUGGCGCCGGCUGGGCAACAUUCCGACGGGAUCGUCCCCUCGGUAAUGGCGAAUGGGACCCA [G52C C57U] | 0.991 |
| GGCCGGCAUGGUCCCAGCCUCCUCGCUGGCGCCGGCUGGGCAACAUUCCGACGGGAACGUCCCCUCGGUAAUGGCGAAUGGGACCCA [G52C C57A] | 0.817 |
| GGCCGGCAUGGUCCCAGCCUCCUCGCUGGCGCCGGCUGGGCAACAUUCCGACGGGAGCGUCCCCUCGGUAAUGGCGAAUGGGACCCA [G52C C57G] | 0.866 |
| GGCCGGCAUGGUCCCAGCCUCCUCGCUGGCGCCGGCUGGGCAACAUUCCGACGGGACCGUCCCCUCGGUAAUGGCGAAUGGGACACA [G52C C85A] | 0.969 |
| GGCCGGCAUGGUCCCAGCCUCCUCGCUGGCGCCGGCUGGGCAACAUUCCGACGGGACCGUCCCCUCGGUAAUGGCGAAUGGGACGCA [G52C C85G] | 1.03 |
| GGCCGGCAUGGUCCCAGCCUCCUCGCUGGCGCCGGCUGGGCAACAUUCCGACGGGACCGUCCCCUCGGUAAUGGCGAAUGCGACCCA [G52C G81C] | 0.242 |
| GGCCGGCAUGGUCCCAGCCUCCUCGCUGGCGCCGGCUGGGCAACAUUCCGACGGGACCGUCCCCUCGGUAAUGGCGAAUGUGACCCA [G52C G81U] | 0.579 |
| GGCCGGCAUGGUCCCAGCCUCCUCGCUGGCGCCGGCUGGGCAACAUUCCGACGGGACCGUCCCCUCGGUAAUGGCCAAUGGGACCCA [G52C G76C] | 1.03 |
| GGCCGGCAUGGUCCCAGCCUCCUCGCUGGCGCCGGCUGGGCAACAUUCCGACGGGACCGUCCCCUCGGUAAUGGCUAAUGGGACCCA [G52C G76U] | 1.03 |
| GGCCGGCAUGGUCCCAGCCUCCUCGCUGGCGCCGGCUGGGCAACAUUCCGACGGGACCGUCGCCUCGGUAAUGGCGAAUGGGACCCA [G52C C62G] | 0.383 |
| GGCCGGCAUGGUCCCAGCCUCCUCGCUGGCGCCGGCUGGGCAACAUUCCGAUGGGACCGUCCCCUCGGUAAUGGCGGAUGGGACCCA [G52U A77G] | 0.647 |
| GGCCGGCAUGGUCCCAGCCUCCUCGCUGGCGCCGGCUGGGCAACAUUCCGACGGGACCGUCCCCUCGGUAAUGACGAAUGGGACCCA [G52C G74A] | 0.486 |
| GGCCGGCAUGGUCCCAGCCUCCUCGCUGGCGCCGGCUGGGCAACAUUCCGACGGGACCGUCCCCUCGGUAAUGCCGAAUGGGACCCA [G52C G74C] | 0.17 |
